This series deals with the molecule itself. Description: dynamic light scattering; free peptide without lipid; DLS at 20 °C in CD buffer (10 mM Na-phosphate, 100 mM Na2SO4, pH 7.0); the methods give 20 or 40 µM peptide for the DLS samples.

Ends that are not written are not given here.

B1: Temporin-La (peptide)
peptide: LLRHVVKILEKYL-NH2
notes: 13 residues; MW = 1622.6 as printed in the methods; also called Tempo-La; TEMPO-LA; source: synthetic peptide (NovoPro Bioscience Inc., Shanghai; purity >= 95%)
On to B1, for which the binding result is given as “binds”.

Source of the values: PMC8395313, “Membrane Association Modes of Natural Anticancer Peptides: Mechanistic Details on Helicity, Orientation, and Surface Coverage” (International Journal of Molecular Sciences, 2021).
